B1: Zinc finger MYM-type protein 6, residues 427 to 504; numbered along this chain, O95789 (parent)
chain: KLKCQHCNHLFATKPELLFYKGKMFLFCGKNCSDEYKKKNKVVAMCDYCKLQKIIKETVRFSGVDKPFCSEVCKFLSA

± gives the uncertainty stated by the source.

Variants of B1 are the subject of this series. Description: abundance fitness (aPCA) (normalised: wild type 0, dead -1); higher = more abundant; growth selection in yeast, the domain comes from the species named. The settings on record: Homo sapiens.
With KLKCQHCNHLFATKPELLFYKGKMFLFCGKNCSDEYKKKNKVVAMCDYCKLQKIIRETVRFSGVDKPFCSEVCKFLSA, the abundance fitness is -0.423 ± 0.089.
Then KLKCQHCNHLFATKPELLFYKGKMFLFCGKNCSDEYKKKNKVVAMCDYCKLQKIILETVRFSGVDKPFCSEVCKFLSA, with -0.382 ± 0.16; and KLKCQHCNHLFATKPELLFYKGKMFLFCGKNCSDEYKKKNKVVAMCDYCKLQKIIPETVRFSGVDKPFCSEVCKFLSA, with 0.182 ± 0.12.
Under KLKCQHCNHLFATKPELLFYKGKMFLFCGKNCSDEYKKKNKVVAMCDYCKLQKIICETVRFSGVDKPFCSEVCKFLSA stands -0.658 ± 0.43.
Under KLKCQHCNHLFATKPELLFYKGKMFLFCGKNCSDEYKKKNKVVAMCDYCKLQKIIQETVRFSGVDKPFCSEVCKFLSA stands -0.044 ± 0.14.
For the variant KLKCQHCNHLFATKPELLFYKGKMFLFCGKNCSDEYKKKNKVVAMCDYCKLQKIIKERVRFSGVDKPFCSEVCKFLSA, the abundance fitness came out at 0.019 ± 0.071.
Under KLKCQHCNHLFATKPELLFYKGKMFLFCGKNCSDEYKKKNKVVAMCDYCKLQKIIKELVRFSGVDKPFCSEVCKFLSA stands -0.546 ± 0.45; under KLKCQHCNHLFATKPELLFYKGKMFLFCGKNCSDEYKKKNKVVAMCDYCKLQKIIKEGVRFSGVDKPFCSEVCKFLSA, -0.125 ± 0.084.
With KLKCQHCNHLFATKPELLFYKGKMFLFCGKNCSDEYKKKNKVVAMCDYCKLQKIIKEVVRFSGVDKPFCSEVCKFLSA, the abundance fitness was found to be 0.031 ± 0.1.
Take KLKCQHCNHLFATKPELLFYKGKMFLFCGKNCSDEYKKKNKVVAMCDYCKLQKIIKEAVRFSGVDKPFCSEVCKFLSA: the abundance fitness is -0.585 ± 0.11.
Consider KLKCQHCNHLFATKPELLFYKGKMFLFCGKNCSDEYKKKNKVVAMCDYCKLQKIIKEWVRFSGVDKPFCSEVCKFLSA, for which the abundance fitness is -0.669 ± 0.28.
Then KLKCQHCNHLFATKPELLFYKGKMFLFCGKNCSDEYKKKNKVVAMCDYCKLQKIIKEEVRFSGVDKPFCSEVCKFLSA, with -0.277 ± 0.14; and KLKCQHCNHLFATKPELLFYKGKMFLFCGKNCSDEYKKKNKVVAMCDYCKLQKIIKEKVRFSGVDKPFCSEVCKFLSA, with 0.055 ± 0.44.
Under KLKCQHCNHLFATKPELLFYKGKMFLFCGKNCSDEYKKKNKVVAMCDYCKLQKIIKEDVRFSGVDKPFCSEVCKFLSA stands 0.779 ± 0.11.
In the case of KLKCQHCNHLFATKPELLFYKGKMFLFCGKNCSDEYKKKNKVVAMCDYCKLQKIIKEHVRFSGVDKPFCSEVCKFLSA, the abundance fitness came to 0.511 ± 0.41.
Under KLKCQHCNHLFATKPELLFYKGKMFLFCGKNCSDEYKKKNKVVAMCDYCKLQKIIKEPVRFSGVDKPFCSEVCKFLSA stands -0.328 ± 0.21; under KLKCQHCNHLFATKPELLFYKGKMFLFCGKNCSDEYKKKNKVVAMCDYCKLQKIIKEYVRFSGVDKPFCSEVCKFLSA, 0.177 ± 0.41.
Regarding KLKCQHCNHLFATKPELLFYKGKMFLFCGKNCSDEYKKKNKVVAMCDYCKLQKIIKGTVRFSGVDKPFCSEVCKFLSA, the abundance fitness is -0.163 ± 0.069.
Then KLKCQHCNHLFATKPELLFYKGKMFLFCGKNCSDEYKKKNKVVAMCDYCKLQKIIKATVRFSGVDKPFCSEVCKFLSA, with -0.129 ± 0.1; and KLKCQHCNHLFATKPELLFYKGKMFLFCGKNCSDEYKKKNKVVAMCDYCKLQKIIKDTVRFSGVDKPFCSEVCKFLSA, with 0.002 ± 0.3; and KLKCQHCNHLFATKPELLFYKGKMFLFCGKNCSDEYKKKNKVVAMCDYCKLQKIIKLTVRFSGVDKPFCSEVCKFLSA, with -0.711 ± 0.25.
Under KLKCQHCNHLFATKPELLFYKGKMFLFCGKNCSDEYKKKNKVVAMCDYCKLQKIIKVTVRFSGVDKPFCSEVCKFLSA stands -0.059 ± 0.1.
In the case of KLKCQHCNHLFATKPELLFYKGKMFLFCGKNCSDEYKKKNKVVAMCDYCKLQKIIKSTVRFSGVDKPFCSEVCKFLSA, the abundance fitness is -0.388 ± 0.13.
Under KLKCQHCNHLFATKPELLFYKGKMFLFCGKNCSDEYKKKNKVVAMCDYCKLQKIIKHTVRFSGVDKPFCSEVCKFLSA stands 0.272 ± 0.27; under KLKCQHCNHLFATKPELLFYKGKMFLFCGKNCSDEYKKKNKVVAMCDYCKLQKIIKQTVRFSGVDKPFCSEVCKFLSA, -0.289 ± 0.38.
Then KLKCQHCNHLFATKPELLFYKGKMFLFCGKNCSDEYKKKNKVVAMCDYCKLQKIIKTTVRFSGVDKPFCSEVCKFLSA, with 0.026 ± 0.13; and KLKCQHCNHLFATKPELLFYKGKMFLFCGKNCSDEYKKKNKVVAMCDYCKLQKIIKMTVRFSGVDKPFCSEVCKFLSA, with 0.605 ± 0.12; and KLKCQHCNHLFATKPELLFYKGKMFLFCGKNCSDEYKKKNKVVAMCDYCKLQKIIKCTVRFSGVDKPFCSEVCKFLSA, with 0.163 ± 0.27.
In the case of KLKCQHCNHLFATKPELLFYKGKMFLFCGKNCSDEYKKKNKVVAMCDYCKLQKIIKRTVRFSGVDKPFCSEVCKFLSA, the abundance fitness was -0.181 ± 0.087.
Then KLKCQHCNHLFATKPELLFYKGKMFLFCGKNCSDEYKKKNKVVAMCDYCKLQKWIKETVRFSGVDKPFCSEVCKFLSA, with -0.079 ± 0.11; and KLKCQHCNHLFATKPELLFYKGKMFLFCGKNCSDEYKKKNKVVAMCDYCKLQKTIKETVRFSGVDKPFCSEVCKFLSA, with 0.104 ± 0.17.
Consider KLKCQHCNHLFATKPELLFYKGKMFLFCGKNCSDEYKKKNKVVAMCDYCKLQKSIKETVRFSGVDKPFCSEVCKFLSA, for which the abundance fitness came to 0.174 ± 0.18.
Under KLKCQHCNHLFATKPELLFYKGKMFLFCGKNCSDEYKKKNKVVAMCDYCKLQKQIKETVRFSGVDKPFCSEVCKFLSA stands 0.52 ± 0.08.
Regarding KLKCQHCNHLFATKPELLFYKGKMFLFCGKNCSDEYKKKNKVVAMCDYCKLQKVIKETVRFSGVDKPFCSEVCKFLSA, the abundance fitness amounted to 0.131 ± 0.076.
Then KLKCQHCNHLFATKPELLFYKGKMFLFCGKNCSDEYKKKNKVVAMCDYCKLQKRIKETVRFSGVDKPFCSEVCKFLSA, with 0.157 ± 0.068.
